# B1: AvIDH (Azotobacter vinelandii) (protein)
# chain: STPKIIYTLTDEAPALATYSLLPIIKAFTGSSGIAVETRDISLAGRLIATFPEYLTDTQKISDDLAELGKLATTPDANIIKLPNISASVPQLKAAIKELQQQGYKLPDYPEEPKTDTEKDVKARYDKIKGSAVNPVLREGNSDRRAPLSVKNYARKHPHKMGAWSADSKSHVAHMDNGDFYGSEKAALIGAPGSVKIELIAKDGSSTVLKAKTSVQAGEIIDSSVMSKNALRNFIAAEIEDAKKQGVLLSVHLKATMMKVSDPIMFGQIVSEFYKDALTKHAEVLKQIGFDVNNGIGDLYARIKTLPEAKQKEIEADIQAVYAQRPQLAMVNSDKGITNLHVPSDVIVDASMPAMIRDSGKMWGPDGKLHDTKAVIPDRCYAGVYQVVIEDCKQHGAFDPTTMGSVPNVGLMAQKAEEYGSHDKTFQIPADGVVRVTDESGKLLLEQSVEAGDIWRMCQAKDAPIQDWVKLAVNRARATNTPAVFWLDPARAHDAQVIAKVERYLKDYDTSGLDIRILSPVEATRFSLARIREGKDTISVTGNVLRDYLTDLFPIMELGTSAKMLSIVPLMSGGGLFETGAGGSAPKHVQQFLEEGYLRWDSLGEFLALAASLEHLGNAYKNPKALVLASTLDQATGKILDNNKSPARKVGEIDNRGSHFYLALYWAQALAAQTEDKELQAQFTGIAKALTDNETKIVGELAAAQGKPVDIAGYYHPNTDLTSKAIRPSATFNAALAPLA
# notes: full-length gene, C-terminal 6xHis (kept), pET24a, E. coli BL21(DE3), Ni-NTA
# B2: CgIDH (Corynebacterium glutamicum ATCC 13032) (protein)
# chain: MAKIIWTRTDEAPLLATYSLKPVVEAFAATAGIEVETRDISLAGRILAQFPERLTEDQKVGNALAELGELAKTPEANIIKLPNISASVPQLKAAIKELQDQGYDIPELPDNATTDEEKDILARYNAVKGSAVNPVLREGNSDRRAPIAVKNFVKKFPHRMGEWSADSKTNVATMDANDFRHNEKSIILDAADEVQIKHIAADGTETILKDSLKLLEGEVLDGTVLSAKALDAFLLEQVARAKAEGILFSAHLKATMMKVSDPIIFGHVVRAYFADVFAQYGEQLLAAGLNGENGLAAILSGLESLDNGEEIKAAFEKGLEDGPDLAMVNSARGITNLHVPSDVIVDASMPAMIRTSGHMWNKDDQEQDTLAIIPDSSYAGVYQTVIEDCRKNGAFDPTTMGTVPNVGLMAQKAEEYGSHDKTFRIEADGVVQVVSSNGDVLIEHDVEANDIWRACQVKDAPIQDWVKLAVTRSRLSGMPAVFWLDPERAHDRNLASLVEKYLADHDTEGLDIQILSPVEATQLSIDRIRRGEDTISVTGNVLRDYNTDLFPILELGTSAKMLSVVPLMAGGGLFETGAGGSAPKHVQQVQEENHLRWDSLGEFLALAESFRHELNNNGNTKAGVLADALDKATEKLLNEEKSPSRKVGEIDNRGSHFWLTKFWADELAAQTEDADLAATFAPVAEALNTGAADIDAALLAVQGGATDLGGYYSPNEEKLTNIMRPVAQFNEIVDALKK
# notes: full-length gene, C-terminal 6xHis (kept), pET24a, E. coli BL21(DE3), Ni-NTA; about 80 kDa by SEC, monomer
# Experiments:
# Assay in all cases: NADPH fluorescence, initial rates, Michaelis-Menten fit
# [1] = substrate: NC(=O)c1ccc[n+]([C@@H]2O[C@H](COP(=O)(O)OP(=O)(O)OC[C@H]3O[C@@H](n4cnc5c(N)ncnc54)[C@H](OP(=O)(O)O)[C@@H]3O)[C@@H](O)[C@H]2O)c1; format: biochemical, Azotobacter vinelandii; details: 1 mM isocitrate, 1 mM MnCl2, 20 mM MOPS pH 7.4, 100 mM NaCl, 30 °C, varied: cofactor
# Excerpt: (§1) NADPH fluorescence, initial rates, Michaelis-Menten fit on AvIDH
# [2] = substrate: O=C(O)CC(C(=O)O)C(O)C(=O)O; format: biochemical, Azotobacter vinelandii; details: 1 mM NADP+, 1 mM MnCl2, 20 mM MOPS pH 7.4, 100 mM NaCl, 30 °C, DL-isocitrate 0-100 μM
# Excerpt: as §1
# [3] = substrate: NC(=O)c1ccc[n+]([C@@H]2O[C@H](COP(=O)(O)OP(=O)(O)OC[C@H]3O[C@@H](n4cnc5c(N)ncnc54)[C@H](OP(=O)(O)O)[C@@H]3O)[C@@H](O)[C@H]2O)c1; format: biochemical, Corynebacterium glutamicum; details: 1 mM isocitrate, 1 mM MnCl2, 20 mM MOPS pH 7.4, 100 mM NaCl, 30 °C, varied: cofactor
# Excerpt: (§2) NADPH fluorescence, initial rates, Michaelis-Menten fit on CgIDH
# [4] = substrate: O=C(O)CC(C(=O)O)C(O)C(=O)O; format: biochemical, Corynebacterium glutamicum; details: 1 mM NADP+, 1 mM MnCl2, 20 mM MOPS pH 7.4, 100 mM NaCl, 30 °C, DL-isocitrate 0-100 μM
# Excerpt: as §2
protein,measurement,setting,value
B1,Km,[1],5.9 µM
same,kcat,[1],38.7 s⁻¹
same,kcat/Km,[1],6.6e+06 M⁻¹ s⁻¹
same,Km,[2],13.9 µM
same,kcat,[2],44 s⁻¹
same,kcat/Km,[2],3.2e+06 M⁻¹ s⁻¹
B2,Km,[3],10.3 µM
same,kcat,[3],43.7 s⁻¹
same,kcat/Km,[3],4.3e+06 M⁻¹ s⁻¹
same,Km,[4],15.0 µM
same,kcat,[4],49.4 s⁻¹
same,kcat/Km,[4],3.3e+06 M⁻¹ s⁻¹

# — publication PMC9736777, “Expression and Characterization of Monomeric Recombinant Isocitrate Dehydrogenases from Corynebacterium glutamicum and Azotobacter vinelandii for NADPH Regeneration” (International Journal of Molecular Sciences, 2022)
